# System: Saccharomyces cerevisiae
# Assay: transcriptional activation domain activity (GFP:mCherry ratio, weighted mean of sorted bins, harmonized to initial dataset scale) (arbitrary fluorescence ratio units); higher = stronger transcriptional activation
# Conditions: beta-estradiol 1 µM; induction time 4 h
# Method in brief: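 In diploid yeast carrying a GFP reporter, barcoded protein tiles fused to an estradiol-inducible synthetic transcription factor were integrated at the URA3 locus. Cultures diluted 1:5 into SC with 1 uM beta-estradiol were kept at 30 °C for 4 hours, then sorted by GFP:mCherry ratio into 8 bins before barcode sequencing. Tiles with under 50 reads were excluded. The activation activity reported here is the read-weighted mean of bin median fluorescence, averaged across barcodes and linearly rescaled to the initial dataset.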
row,Sequence,transcriptional activation domain activity
1,VRLLIRCTRRSLYFWACLCCSWGIILHSLFITLANFNVLQSYGSIVIIHLTWC,74300
2,PNDDFLLDCEEWGLNQLFGDEQFSNNINDLSDDLLALIPDWSFIPPSEDPWGL,147000
3,RHASRHASRHASRDASPERRTLRSNLAAAFSGHGRRSRPASPERGGGGGGGAG,26800
4,ATGLAWGVWGKKGAPRFRGSCAERFDTLSSTEWKGSRLVRLVARFDNTVRSVP,45600
5,SKIAWMILNIKYITQILTTIMRMHGQIEKNPLRPEVVPQFVGICRWIMQFMIY,55700
6,YDTPSLQMMTIHKSFFGIVNDDTFHWKGLSKLSLDSVPGCRLLSILLLCSATL,73200
7,MISIPFPFHFIFKYVWWYYHVLYCLLACLLACCSCTYMFYLPVLLMLLLLFGC,41900
8,GELYIYRLISSGLIFDTLWSLVTFGHPKGHPLPQYPCTVDMPDDFFRVRLVCV,65900
9,VGEEGEEKESMRVRVREEMVAQATSLAFLRNVNAIGEETTSLLDTAARLVRIG,63700
10,MIRFPCLLLYIFAMVYLGVLFFSFFDSCFFFFLHLLGAGWVVHFFLDIFFFYI,70600
11,MLLFFSFSLCRFLFLSLLLVFLMDAFSFLCFLLIQPPLPCLRSFFSLFLIFVL,38900
12,MPRLCLWLTCIYGVMYCMEFSLLVYALHSLANEYYPASYGDNLGCVTVNLHYY,44400
13,ALVLLYIIRFVCTTLAKRFPSKSKLFFFMSTLRTVFVILLYTMISWLVNRHSR,44800
14,FREELVHFFKDPNFDPKLAFESSSYIVNHVLKLTLVMWRYLLVKVEHSFLIAM,59800
15,RKPEPAGEKAEGAQSGGEGQNGEGRRRGGGRGRGRARGRGGRGGRGGRGQRNA,< 6570
16,EKVGTLWRARDVNERRQAKASGAAGGAAKATKPAGAAAASGAKPKATGAAGAA,21900
17,THSKKQHCDVCKHPYSFTKVYASDMPKQLPLLLVLRKLVQQFFSVLLFSIRAI,45400

row,Sequence,transcriptional activation domain activity
1,AALLHLIILISFGNLLLVPKCCLLVHTLRFWCRVFFLNPSLVLSFALSTFIYS,58900
2,VTRHHEFLRVHLNEKGEKLLYITHRLDKNGFDVRVFLVAASGFLTDSYILFVT,39700
3,TVEFLLPFLSFSLLGCLFIFYFIFFLCFLFFFSQTFCFFISSNCWCFVSNLLP,34700
4,FQNISNTILDISLSHGKVPNMDQLTRELFGASDSYQDILDENNVDVSWVDKLV,103000
5,MESRARISTSVILYLCARLRSIAVITYMIVVRSLSTFVYLAQRFFILLWPIIW,55600
6,GKKDQEALKEGESSSESASASASKSSSSTKSSKGSKSSSAAAAEASDDGKPKK,38600
7,FEHKELKLCPYFNFTFCVYFRLSNPFAKQYHITPTCFCGQNVTINRTYREGKN,62800
8,WLLFLQEYGTITLTLLQSLEYWISNIDLTDESKSQLSKQGRACMYHLIVLTLR,53700
9,MCACRLFNQICFINKPCRIVNLSISIVYINWGMLLCVMRSDVLSLYLLIMLPV,80000
10,SFILLFFYSFILLFFYSFILLFFWFFFCLWILIFSLFYSTIIITIKKRKAHTY,59300
11,VARVVNVFLWSMAVTFFLLVMHRITVYRAQQLYITTYCDPYFPIYPLRRILPQ,45400
12,MLMGCLCSYLRPHSLGCEGCYLLLHSLFIYGLRLVIGRFMSWSFSLVSFLFFY,62100
13,MIEMMAFRIALGFVGGLGLDGVWCGFFFPFKFVVFSFLHTLSISLGLDFFFLL,91700
14,MRNDRGERKKEKRRREARERKKKERKGRREKGGKRKEEDEEKGRGGRGRRNGG,28600
15,KARPRQEGGQRQESGKKRKRDEDEGGDGQEGGEGGRKRRRKRKGAGGADDGVQ,33400
16,MLLFIFWRLLYFFILGSLLRAQSRRKWLVRWCREHGFGPNPRRPRSGWVTFWV,59600
17,GPASGASKPKRRYVRKRKEPEEGAGVDNAEASSMAPKPKRQRKKKAPMAEARN,21900

# — the supplement of paper PMC12636428
